Our source for the protein stability index values is the supplement of paper PMC10567573.

± gives the standard deviation.

The nature of this data set: protein stability index of a GFP-peptide fusion (GPS, HEK-293T) (PSI 1-6); higher = more stable.
The mark [1] stands for this setting: treatment: DMSO, c terminus: a fixed tail appended.
[2] abbreviates: treatment: MLN4924 1 uM, 8 h, c terminus: a fixed tail appended.
The mark [3] stands for this setting: treatment: DMSO, c terminus: native.
Where [4] appears, read: treatment: MLN4924 1 uM, 8 h, c terminus: native.
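Note: 24-mer peptide tiles fused after GFP, lentivirally expressed, FACS-sorted into six equal bins by GFP/DsRed ratio, decoded by Illumina sequencing, PSI is the read-weighted mean bin number.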

For LSVCPLEGSREHAFQITGVWDASR [PLEKHN1], the protein stability index came to 2.88 ± 0.24 under setting [1] and 3.38 ± 0.37 under setting [2].

On to LTADTKEVTASQEARGLRLSDLED [IRX6], for which the protein stability index is 5.37 ± 0.32 under setting [1] and 5.35 ± 0.12 under setting [2].

LTGLFKGDKCHSLVGKPKIFIIQA [CASP6] registered a protein stability index under setting [1] of 2.83 ± 0.46 and a protein stability index under setting [2] of 2.93 ± 0.65.

Consider LTRMTRVSEFLKVAEQVGIDKGDI [SNAP91], for which the protein stability index is, setting by setting: under setting [1], 3.39 ± 0.23; under setting [2], 3.48 ± 0.23.

LTSLHHFMHSRNLYILGNFMQLKC [PNLIPRP1]: the protein stability index came out at 2.89 ± 0.32 under setting [1] and 2.5 ± 0.35 under setting [2].

Consider LTSLLACLPAGPRVYFLKGGYETF [DUSP5], for which the protein stability index runs as follows: under setting [1], 2.34 ± 0.42; under setting [2], 2.36 ± 0.47.

Regarding LTTCTSNVAASNAKLALFYDWLFF [INTS3], the protein stability index stood at 2.33 ± 0.45 under setting [1] and 2.66 ± 0.54 under setting [2].

On to LVALKCTCCYFKFIIEYYNIRPAD [FBXO34], for which the protein stability index is, setting by setting: under setting [1], 2.69 ± 0.38; under setting [2], 2.81 ± 0.9.

LVELSAENEKLHQRVEQLTRDLAG [CEBPD]: the protein stability index was 3.64 ± 0.61 under setting [1] and 3.73 ± 0.28 under setting [2].

The sequence LVLAAVVAWCYYSVSLRKAERLRA [MYORG] showed a protein stability index under setting [1] of 3.27 ± 0.64 and a protein stability index under setting [2] of 3.31 ± 0.33.

On to LWKMKPRRNLEEDDYLHKDTGETS [STEAP1], for which the protein stability index was 4.07 ± 0.3 under setting [1] and 4.08 ± 0.42 under setting [2].

Consider LYGQRNSAPEQELLVQDATPVSNS [GFOD1], for which the protein stability index under setting [1] turned out to be 4.82 ± 0.098 and the protein stability index under setting [2] is 4.76 ± 0.11.

Consider LYPEGIGARQQQVTTYLHKDYNNL [POMT2], for which the protein stability index is, setting by setting: under setting [1], 3.25 ± 0.15; under setting [2], 3.35 ± 0.26.

Turning to LYSMECAFHPLFSLTSGACRLDYR [TCF25], the protein stability index under setting [1] was found to be 2.25 ± 0.72 and the protein stability index under setting [2] stood at 2.38 ± 0.71.

For LYVDSLFFLRGRLDQLLRHVMNPL [PRAME], the protein stability index is, setting by setting: under setting [1], 3.38 ± 0.99; under setting [2], 1.89 ± 0.53.

Take MAAESLPFSFGTLSSWELEAWYED [DDIT3]: the protein stability index runs as follows: under setting [1], 3.21 ± 0.074; under setting [2], 3.45 ± 0.23.

On to MAATCEISNIFSNYFSAMYSSEDS [ELF3], for which the protein stability index reads like this: under setting [1], 2.29 ± 0.22; under setting [2], 2.3 ± 0.21.

MAEHRSMDGRMEAATRGGSHLQAA [SCNN1D] showed a protein stability index under setting [1] of 4.56 ± 0.27 and a protein stability index under setting [2] of 4.648 ± 0.04.

Regarding MAFFLCLGLALGAVFSFLFRAIV [SLC29A1], the protein stability index under setting [3] was 4.33 ± 0.19 and the protein stability index under setting [4] stood at 4.14 ± 0.24.

For MAKFGVHRILLLAISLTKCLESTK [MIA2], the protein stability index came out at 3.27 ± 0.52 under setting [1] and 3.06 ± 0.8 under setting [2].

Consider MAKKHKKIRLRCQKGIPPSLRGRA [TBC1D10A], for which the protein stability index runs as follows: under setting [1], 3.29 ± 0.18; under setting [2], 3.35 ± 0.29.

On to MAMAVMLYYSNFVLALEERFGVRP [MFSD9], for which the protein stability index worked out at 3.3 ± 0.47 under setting [1] and 3.41 ± 0.49 under setting [2].

With MAQTVPPCELPCKEYDVARNTGAY [TEKT4], the protein stability index reads like this: under setting [1], 4.16 ± 0.27; under setting [2], 4.08 ± 0.26.

Regarding MDADMDYERPNVETIKCVVVGDNA [RHOBTB1], the protein stability index under setting [1] worked out at 4.8 ± 0.1 and the protein stability index under setting [2] turned out to be 4.83 ± 0.14.

Take MDLKTAVFNAARDGKLRLLTKLLA [FEM1C]: the protein stability index by setting is: under setting [1], 2.17 ± 0.2; under setting [2], 2.3 ± 0.32.

In turn, MDQLQGLGSDYEQPLEVKNNSNLQ [CDC25A] returned a protein stability index under setting [1] of 5.09 ± 0.17 and a protein stability index under setting [2] of 4.85 ± 0.18.

MEKKSKPKNSVWKRLKSPFRKKKD [RIT1] came in with a protein stability index under setting [1] of 3.69 ± 0.12 and a protein stability index under setting [2] of 3.88 ± 0.3.

Regarding METQAEQQELETLPTTKMAQTNPT [CRYBA1], the protein stability index was found to be 5.24 ± 0.3 under setting [1] and 5.3 ± 0.29 under setting [2].

Consider MGEPAGVAGTMESPFSPGLFHRLD [ATF6], for which the protein stability index came to 3.58 ± 0.14 under setting [1] and 3.79 ± 0.36 under setting [2].

Turning to MGETKIIYHLDGQETPYLVKLPLP [DVL3], the protein stability index under setting [1] amounted to 2.2 ± 0.3 and the protein stability index under setting [2] came to 2.3 ± 0.23.

MGPKTLPQLAGKWQVLCMLSLCCW [PCDHGC5] gave a protein stability index under setting [1] of 3.21 ± 0.49 and a protein stability index under setting [2] of 3.17 ± 0.76.

Take MGRKKKKQLKPWCWYCNRDFDDEK [ZNF207]: the protein stability index amounted to 2.39 ± 0.33 under setting [1] and 3.05 ± 0.34 under setting [2].

Regarding MIQTSKTEITELRRTLQGLEIELQ [KRT13], the protein stability index is 3.02 ± 0.28 under setting [1] and 3.07 ± 0.24 under setting [2].

As for MLERIKHEKTVDIYGHVTLMRAQR [PTPRD], the protein stability index reads like this: under setting [1], 1.73 ± 0.22; under setting [2], 2.16 ± 0.38.

Take MLGKYGSSLEFTELLTLVNRKVSQ [CASP6]: the protein stability index under setting [1] turned out to be 2.29 ± 0.23 and the protein stability index under setting [2] was determined as 2.34 ± 0.43.

For the sequence MLLPQLCWLPLLAGLLPPVPAQKF [SMOC2], the protein stability index is 3.51 ± 0.69 under setting [1] and 3.67 ± 1.4 under setting [2].

For MNDFGIKNMDQVAPVANSYRGTLK [ETS2], the protein stability index reads like this: under setting [1], 4.06 ± 0.31; under setting [2], 4.02 ± 0.26.

The sequence MPQSEEHLLEAEPLSPIQASSVHL came in with a protein stability index under setting [1] of 4.87 ± 0.17 and a protein stability index under setting [2] of 4.94 ± 0.17.

In the case of MRATPLAAPAGSLSRKKRLELDDN [TRIB3], the protein stability index by setting is: under setting [1], 4.57 ± 0.14; under setting [2], 4.86 ± 0.23.

For MRELGLLIFFLFIGVILFSSAVYF [KCNA4], the protein stability index under setting [1] is 2.91 ± 0.35 and the protein stability index under setting [2] is 2.03 ± 0.64.

MRSGEPACTMDQARGLDDAAARGG [ZBED3]: the protein stability index by setting is: under setting [1], 5 ± 0.23; under setting [2], 5.06 ± 0.15.

With MSGRSKRESRGSTRGKRESESRGS [USP39], the protein stability index was 4.96 ± 0.12 under setting [1] and 5 ± 0.46 under setting [2].

Regarding MSHHQEELVPKQPQKRKPQEQLLE [SLC2A12], the protein stability index under setting [1] came out at 5.25 ± 0.14 and the protein stability index under setting [2] is 5.34 ± 0.15.

For MTEEVIVIAKWDYTAQQDQELDIK [NCK2], the protein stability index reads like this: under setting [1], 2.92 ± 0.29; under setting [2], 2.97 ± 0.33.

MTPAEAEMHFLENAKKLSMYGVDL [EPB41L3]: the protein stability index runs as follows: under setting [1], 3 ± 0.29; under setting [2], 3.03 ± 0.52.

As to NAGQSDNRSLAEACSEGDVNAVRK [ANKRD17], the protein stability index was 5.56 ± 0.15 under setting [1] and 5.46 ± 0.15 under setting [2].

As for NAPKFQAENLDVKINENVAAGMRF [PCDHGA10], the protein stability index is, setting by setting: under setting [1], 3.77 ± 0.61; under setting [2], 3.86 ± 0.45.

Take NAVRSAMKSEEQKIKDARKGPLVP [KMT5A]: the protein stability index by setting is: under setting [1], 4.75 ± 0.11; under setting [2], 5.07 ± 0.13.

NDYICPATNQCTIDKNRRKSCQAC [ESR2]: the protein stability index reads like this: under setting [1], 4.44 ± 0.21; under setting [2], 4.83 ± 0.17.

NESRRQIQSLTCEVDGLRGTNEAL [PRPH] displayed a protein stability index under setting [1] of 4.7 ± 0.29 and a protein stability index under setting [2] of 5.11 ± 0.056.

For the sequence NFCKHNGSKNVFSTFRTPAVLFTG [ATL3], the protein stability index under setting [1] was 2.21 ± 0.32 and the protein stability index under setting [2] stood at 2.33 ± 0.13.

Sequence NGDITSFLLSVYAPGSSVEYQCQN [CFHR2] registered a protein stability index under setting [1] of 2.38 ± 0.58 and a protein stability index under setting [2] of 2.09 ± 0.24.

For NGKEFNNWFNVTGSDKCVFLKNTE [CD69], the protein stability index was 3.2 ± 0.31 under setting [1] and 3.08 ± 0.42 under setting [2].

As for NHQKDLFRRTDGRCLIWGRKPKVI [DHCR7], the protein stability index was determined as 2.66 ± 0.27 under setting [1] and 2.74 ± 0.3 under setting [2].

Consider NHSLARHADILAAVETRLSLLNMT [FBXO28], for which the protein stability index came to 2.53 ± 0.13 under setting [1] and 2.71 ± 0.19 under setting [2].

In turn, NIKIWLSLRSYLKRRGPQRSVDVV [PHTF1] showed a protein stability index under setting [1] of 2.43 ± 0.35 and a protein stability index under setting [2] of 2.54 ± 0.36.

Regarding NILPNTQKVTCFYQPAPYFAAEAR [TENT5D], the protein stability index runs as follows: under setting [1], 2.49 ± 0.32; under setting [2], 2.59 ± 0.23.

For the sequence NITRIYNIGKSHQGLKLYAVEISD [CPXM2], the protein stability index by setting is: under setting [1], 2.34 ± 0.43; under setting [2], 2.31 ± 0.14.

For NKCSVYPLTFDKNENMAAKKKSVA [GNB5], the protein stability index is 4.09 ± 0.16 under setting [1] and 4.39 ± 0.48 under setting [2].

Turning to NKTDVVLILELVSGGELFDFLAEK [DAPK3], the protein stability index by setting is: under setting [1], 2.55 ± 0.58; under setting [2], 2.68 ± 0.96.

As to NKTNKNSVSSCDQEHQSALEEAKQ [SMOC2], the protein stability index under setting [1] amounted to 5.13 ± 0.43 and the protein stability index under setting [2] is 5.57 ± 0.3.

With NLKTLDSKPGVYTSYKPYLNRDEE [DENND6A], the protein stability index reads like this: under setting [1], 3.6 ± 0.56; under setting [2], 3.63 ± 0.38.

With NNEAFMNQEITKAFHVRRTNRVKE [RHOBTB2], the protein stability index came out at 4.44 ± 0.25 under setting [1] and 4.48 ± 0.21 under setting [2].

With NPALQLILTRTDKTLNKKLGQNK [TOR1AIP2], the protein stability index is 3.87 ± 0.16 under setting [3] and 3.89 ± 0.12 under setting [4].

For NQIMPKTGFLIIILAIIAKEGDCA [MAGEA6], the protein stability index is, setting by setting: under setting [1], 2.98 ± 0.45; under setting [2], 2.47 ± 0.61.

NQLLVADVKRLGKQNARFLTSMRR [STX11]: the protein stability index reads like this: under setting [1], 2.97 ± 0.079; under setting [2], 3.08 ± 0.41.

In the case of NQYATCRLCGRQVSRGPGVNVGTT [ZBED2], the protein stability index under setting [1] came to 2.39 ± 0.27 and the protein stability index under setting [2] is 2.58 ± 0.46.

In the case of NSDLNNLLFCCQCVDVVFYNPDLK [RHOBTB3], the protein stability index reads like this: under setting [1], 2.28 ± 0.99; under setting [2], 2.59 ± 0.6.

On to NSKPQDLTDAYGPPSNFLEIDIFN [SNX12], for which the protein stability index reads like this: under setting [1], 3.63 ± 0.18; under setting [2], 3.83 ± 0.24.

NVEAQLSEIRCDLERQNQEYQVLL [KRT36]: the protein stability index is, setting by setting: under setting [1], 3.58 ± 0.29; under setting [2], 3.53 ± 0.21.

On to NWQPAVPLMHMLHLSGALDFPRQS [SPATS1], for which the protein stability index was determined as 2.07 ± 0.39 under setting [1] and 2.15 ± 0.52 under setting [2].

In the case of NYGADTNTRNYEGQTPLAVSISIS [ASB7], the protein stability index stood at 2.65 ± 0.45 under setting [1] and 2.77 ± 0.48 under setting [2].
